# The supplement of paper PMC10567573
# ± gives the standard deviation.
# Experiment: protein stability index of a GFP-peptide fusion (GPS, HEK-293T) (PSI 1-6); higher = more stable
# [1] = treatment: DMSO, c terminus: a fixed tail appended
# [2] = treatment: MLN4924 1 uM, 8 h, c terminus: a fixed tail appended
# [3] = treatment: DMSO, c terminus: native
# [4] = treatment: MLN4924 1 uM, 8 h, c terminus: native
# 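Further: 24-mer peptide tiles fused after GFP, lentivirally expressed, FACS-sorted into six equal bins by GFP/DsRed ratio, decoded by Illumina sequencing, PSI is the read-weighted mean bin number.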
Sequence,protein stability index [1],protein stability index [2],protein stability index [3],protein stability index [4]
KDVAIDMMDSRTSQQLQLIDEQDS [STX5],5.4 ± 0.21,5.33 ± 0.4,,
CEVIFCVFIFYYVVEEILELHIHR [PKD2L1],3 ± 0.52,3.07 ± 0.11,,
QGLLGRSPPTRPVPGHRSERAIRT [SPRY1],4.51 ± 0.21,4.47 ± 0.2,,
NGRHKIPESQFPEFSTSLFSGSLE [SRPK2],3.66 ± 0.22,3.8 ± 0.19,,
VQKNILAAASPYIRTKLNYNPPKD [GAN],2.97 ± 0.34,3.24 ± 0.38,,
VLRAEHRGFQEENKALWENNKLKL [CBY2],3.83 ± 0.45,3.89 ± 0.28,,
DSPENGADSFESSDSLLQSWNSQS [ETS2],5.11 ± 0.16,5.14 ± 0.15,,
SLVIGALLASLTGGVLIDRYGRRT [SLC2A12],2.89 ± 0.45,3.03 ± 0.42,,
SSSRDTDWVVVKEPVIKVAAIDNG [PI4K2A],4.25 ± 0.1,4 ± 0.11,,
RSVSLSMRKSGAMKKGGIFSAEFL [BNIP3L],2.8 ± 0.3,2.95 ± 0.34,,
LCALPVHVAVEHQLPPASRCVLVF [SOAT2],2.71 ± 0.6,2.71 ± 0.61,,
EGKSRHVDFQCVKSKSITNLAAAA [BTBD10],3.48 ± 0.43,3.9 ± 0.28,,
GAPSPGSSDVSTAGTGASRSSHSS [ELF3],5.33 ± 0.29,5.32 ± 0.14,,
ERAKELYSSGEFSSGRKWGDDAPK [INTS4],4.77 ± 0.33,4.66 ± 0.14,,
LQLGDGGGCTVGVAGEGVRRKGEM [TRIM15],4.71 ± 0.17,3.84 ± 0.45,,
QPLEGGTPNSAGGPGAHILRRKSP [ADAMTS4],5.34 ± 0.43,5.37 ± 0.17,,
KLEYEEIALDLTPVIEELTNAGFL [FAN1],2.14 ± 0.23,2.38 ± 0.24,,
NVIETCKEAGVQKLILTSSASVIF [NSDHL],2.69 ± 0.27,2.86 ± 0.71,,
SFAELFSFMLQDRAKGLLGTTVTF [FEM1C],2.79 ± 0.56,3.21 ± 0.84,,
NAIRVHHALATRASDYSKKSNVLK [PSD2],3.46 ± 0.31,3.5 ± 0.12,,
LLYDRGTKFGLFTPGSRIESILMS [CPOX],2.45 ± 0.46,2.14 ± 0.42,,
CERHEKGVLHKHQRALHKYSLMKR [SNX8],3.56 ± 0.29,3.8 ± 0.31,,
LQAQKEELQSLMHQPKGLEEENAQ [PBXIP1],5.64 ± 0.29,5.45 ± 0.27,,

Sequence,protein stability index [1],protein stability index [2],protein stability index [3],protein stability index [4]
SQQQPLRNQVVSSTNGELNVDDPT [CSNK1G1],5.36 ± 0.24,5.27 ± 0.2,,
DERAMELLIDFAYTSQITVEEGNV [KLHL20],2.54 ± 0.21,3.04 ± 0.2,,
PTCPVCKDRASPADLRTNHTLNNL [TRIM35],3.62 ± 0.21,3.9 ± 0.46,,
DKGGRVVIFQREQESKNQVHRRGE [PPP2R2B],4.59 ± 0.32,4.95 ± 0.29,,
AMLREKFPEFCSSPSPPVEVKIEE [INTS3],4.51 ± 0.3,4.65 ± 0.12,,
CCAAPGPHVALAVRYNRVGILRRI [ANKRD9],2.37 ± 0.26,2.49 ± 0.2,,
CPRIAPADSGRYRASPTRTAPLPM [ELOA2],3.63 ± 0.17,3.76 ± 0.41,,
LHSKEIVYRDLKPENILLDRDGHI [PRKX],3.7 ± 0.15,3.75 ± 0.097,,
GDPRPKIVWNKKGKKVSNQRFEVI [PTPRD],2.94 ± 0.24,3.46 ± 0.64,,
AVLFTGIVALYIASGLTGFIGLEV [ATL3],3.49 ± 0.43,3.52 ± 0.35,,
QDIENALSTSSSPSGTPTNLRRHV [DLC1],4.96 ± 0.17,4.94 ± 0.2,,
PEEELDFFEILRLFFPVIYDVKYL [CNOT7],2.35 ± 0.51,2.47 ± 0.61,,
ELSNFKSQKVLGLNEDPLKWWSDR [ZBED1],2.73 ± 0.17,2.97 ± 0.26,,
PRLHIVKADENNGFGSKNTAFCTH [TBX5],3.43 ± 0.12,3.28 ± 0.049,,
MDVMPGEGDLPQMEVGSGSRELSL [EID1],4.8 ± 0.2,5.06 ± 0.17,,
AMGDHSKKKPGTAMCVGCGSQIHD [ISL2],4.18 ± 0.32,4.3 ± 0.26,,
QPGTNCALAIKVNLCGHWYYSKAC [ADAMTSL2],2.7 ± 0.72,2.75 ± 0.45,,
FVIKMPVMYRIGCLRDDVVFFIYL [CLPTM1],3.05 ± 0.39,3.06 ± 0.25,,
PTLSCEKYLTYDQLRKQKKKTGKS [ELOA2],3.98 ± 0.19,4.57 ± 0.24,,
QNQEYKMLLDIKTRLEQEIATYRS [KRT15],3.31 ± 0.18,3.46 ± 0.37,,
TSLFLGNGVLLCFYSQEWYARQHC [SOAT1],2.9 ± 0.8,2.91 ± 0.32,,
GSRLCLYEDGTELTEDYFPSVPDN [DFFB],4.44 ± 0.44,4.66 ± 0.45,,
GNQLQLNQHCLDTAFNFFKMAVSR [BRF1],2.25 ± 0.36,1.96 ± 0.28,,

Sequence,protein stability index [1],protein stability index [2],protein stability index [3],protein stability index [4]
KPKMNYEKLSRGLRYYYDKNIIHK [ETS2],2.48 ± 0.19,2.52 ± 0.38,,
TIEDEDVKARKQEIIKVTEQLIEA [CAMK2D],5.25 ± 0.075,5.26 ± 0.11,,
NDLDRIAQPNYIPTQQDVLRTRVK [GNAI1],4.81 ± 0.13,4.92 ± 0.15,,
RIHVRRHITHDERPHGQQIVFKD [KCTD13],,,4.31 ± 0.24,4.33 ± 0.32
ENQRLFEMLGRKCLTLATAVVQLY [WAS],2.26 ± 0.21,2.44 ± 0.33,,
RPTYTPPSIMPQKHWVYVKRGGNC [ZBTB22],2.78 ± 0.25,3.06 ± 0.32,,
VSLTSPSAPPTSRTSSGNVWVTHE [PPFIA4],3.35 ± 0.21,3.47 ± 0.32,,
EQGFSQSFTQEQVADIDGQYAMTR [CTNNB1],4.86 ± 0.083,4.61 ± 0.16,,
SRCRNSYTEQELKPLTLEALGHLG [DLC1],2.85 ± 0.32,2.99 ± 0.21,,
FPTVVWTWWIMFLSTFSVPYFLFQ [SOAT1],3.1 ± 0.56,2.99 ± 0.45,,
DRQYDSRGRFGELLLLLPTLQSIT [HNF4A],2.35 ± 0.47,2.17 ± 0.21,,
MAMPNGFHEDGPQGPGGDEDDDEE [PSD2],5.41 ± 0.3,5.47 ± 0.18,,
STASTTSTTNSTAAKPAASITSKP [ZNF207],5.15 ± 0.11,5.01 ± 0.19,,
VLGPLVALIICYNWLHRRLAGQFL [MOG],3.15 ± 0.19,2.92 ± 0.13,,
NTLSVSYKKGRMMKDISNLEENDE [SLC6A17],4.91 ± 0.3,5.08 ± 0.23,,
DDYLHKDTGETSMLKRPVLLHLHQ [STEAP1],3.31 ± 0.21,3.17 ± 0.16,,
VRTSYQPSSPGRFTKETTQKNFNN [TRIM29],3.93 ± 0.15,3.88 ± 0.22,,
IPIFNETGRFSFTLPYPVKIKVRF [HACD3],2.92 ± 1.2,2.77 ± 0.44,,
PWGFRLQGGKDFNVPLSISRLTPG [PDLIM7],2.66 ± 0.18,2.66 ± 0.29,,
YVLEFSDHPGIHEPLEPEVKYVGN [CPN1],3.17 ± 0.27,3.3 ± 0.1,,
HRLRVQQAALRAARLRHQELFRLR [NOP53],2.88 ± 0.23,2.87 ± 0.4,,
KILVGNRLHLAFKRQVPREQAQAY [RAB40A],2.48 ± 0.11,2.56 ± 0.19,,
FATASAAVPVSTSKPSSDLLDLQP [SNAP91],4.01 ± 0.28,4.1 ± 0.41,,

Sequence,protein stability index [1],protein stability index [2],protein stability index [3],protein stability index [4]
ELPKPEVISQLEQGTELWVAERGT [ZNF8],4.76 ± 0.17,4.82 ± 0.66,,
GTPTSHVYMFKNGSGDSGDSSEEE [LYSMD4],5.37 ± 0.4,5.39 ± 0.28,,
LISGVTLDNCVEVGRIANTYNLTE [KLHL13],2.89 ± 0.18,2.77 ± 0.15,,
WELGGGTSLLDLISIPITGDTLRT [DYNC2LI1],2.22 ± 0.32,2.36 ± 0.22,,
KIREKEEWIKLDYHRRHNPKTNED [IQUB],4.23 ± 0.28,4.74 ± 0.13,,
PVVKLLHNRSNNKYSYTSTSDDNL [KCTD13],3.82 ± 0.16,3.94 ± 0.19,,
HVQDPQNTVKVQVLYPDGQAQMIH [INTS4],3.74 ± 0.23,3.52 ± 0.29,,
CAECSQYLDETCTCFVRDGKTYCK [ISL2],4.98 ± 0.29,4.74 ± 0.37,,
LNDQNLCIPASSSFVYGAVPIGAS [GAN],3.07 ± 0.16,3.13 ± 0.17,,
SEAPNEKLFFVDTGSKEKGLTKKR [NOP53],4.98 ± 0.44,5.37 ± 0.15,,
QEYAAKIINTKKLSARDHQKLERE [CAMK2A],4.71 ± 0.22,4.78 ± 0.19,,
SGSRHPPWARGCGMFTFLSSVTAA [SLC2A12],2.48 ± 0.43,2.38 ± 0.62,,
ESCEKNDPLSLLDDSKFPIEDTPL [PCDHGA10],5.5 ± 0.34,5.463 ± 0.028,,
AAKKVAPLMAKAIRDYKGRFSRR [ELOA2],,,2.79 ± 0.33,3.02 ± 0.62
YCLLSDHGCEYSCVNMDRSFACQC [MATN2],2.81 ± 0.54,2.95 ± 0.59,,
TLSKSEYMVIEEGGMNHSAFPQTP [KCNA3],3.43 ± 0.15,3.53 ± 0.28,,
LNAYMKSLLSLPVWVLMDEDVRIF [NCF4],3.17 ± 0.86,2.54 ± 0.46,,
SQGQWGRAWEVDWFSLASVIFLLL [DHCR7],2.68 ± 0.033,2.39 ± 0.48,,
SALGPPPAASNSSDLFDLMGSSQA [CLINT1],4.7 ± 0.22,4.49 ± 0.2,,
RARIAKGLRLCRPKAKAKAKAKAK [RPL29],4.16 ± 0.48,4 ± 0.38,,
